From US20150268247A1, “Assay for Screening of Anti-Viral Compounds That Inhibit Specific Interaction Interfaces Between Cullin5 and an ElonginB/ElonginC/ CBF-beta/HIV-1 Vif Complex” (UNIVERSITY OF ROCHESTER, priority 2012, published 2015) come the findings set out here.

Assay [1] concerns the target T1, Vif/EloB/C/CBFβ quaternary complex (full-length HIV-1 HXB2 Vif(1-192) / ElonginB 1-118 / ElonginC 17 (HIV-1 HXB2; human), P69720. The assay can be described thus: fluorescence anisotropy, complex titrated into 25 nM 5-FAM peptide; Sd ± 0.1.
In assay [2] the target is T1, Vif/EloB/C/CBFβ quaternary complex …. The assay can be described thus: fluorescence anisotropy, complex titrated into 25 nM 5-FAM peptide; Sd ± 4.2. (Polarisation of emitted light reports the rotation of a fluorescent probe.)
Assay [3] has the same target. The assay can be described thus: fluorescence anisotropy, complex titrated into 25 nM 5-FAM peptide; Sd ± 7.0.
Assay [4] has the same target. The assay can be described thus: fluorescence anisotropy, complex titrated into 25 nM 5-FAM peptide; Sd ± 1.0.

As usually defined, the Kd is a measure of binding affinity in units of concentration. Read a high Kd as lower affinity. Molecule KQQWFDLFSDVHAVCLW (modifications not checked) [Cul5(37-53) peptide] showed a Kd in assay [1] of 1.2 µM.

In assay [2], KQQWFDLFSDVH (modifications not checked) [Cul5(37-48) peptide] had a Kd of 15.6 µM. Molecule LRQESVTKQQW (modifications not checked) [Cul5(30-40) peptide] had a dissociation constant Kd in assay [3] of 16 µM.

For the molecule LFSDVHAVCLWDDKGPAKIHQAL (modifications not checked) [Cul5(43-65) peptide], in assay [4], the Kd was determined as 4.7 µM. In turn, LFSDVHAVCLWD (modifications not checked) [Cul5(43-54) peptide] yielded a Kd in assay [1] of 2.5 µM.
